The target of data set [1] is Feruloyl esterase (LaFae) from Lactobacillus acidophilus (Lactobacillus acidophilus). Put plainly: SEC; gel filtration on HiPrep S-200R column in 20 mM Tris-HCl (pH 8.0), molecular weight from a standard curve of protein standards. In general terms: Size exclusion chromatography separates by hydrodynamic size, large species first.
Data set [2] shares this target. Put plainly: AUC; 20 mM Tris-HCl (pH 8.0), ProteomeLab XL-A, sedimentation profile at 280 nm analysed with SEDFIT.
Substrate in the data set “purified protein”: CCCC(=O)Oc1ccc([N+](=O)[O-])cc1
Put plainly: purified protein. It is filed as biochemical, Lactobacillus acidophilus. Particulars: hydrolysis; His6-tagged enzyme.

What is called stoichiometry N is a count of units in the complex or per binding partner. In data set [1], “Feruloyl esterase (LaFae) from Lactobacillus acidophilus (enzyme)” gave a stoichiometry N of 2. In data set [2], the percent of the sample in the dimer peak is 95.3% and the stoichiometry N stood at 2.

B1: LaFae (Lactobacillus acidophilus NCFM) (protein)
chain: MSRITIERDGLTLVGDREEPFGEIYDMAILMHGFTANRNTPLLRQIADNLRDENVASVRFDFNGHGESDGAFEDMTVCNEIADAQKILEYVRTDPHVRNIFLVGHSQGGVVASMLAGLYPDIVKKVVLLAPAAQLKDDALNGDTQGATYNPEHIPAAIPFHGKKLGGFYLRTAQVLPIYEIAKHYTNPVSIIVGSNDQVVAPKYSKKYDEVYENSELHMVPDADHSFTGQYKDSAVDLTAEFLKPLF
notes: His6-tagged, pET-21a (BamHI/XhoI), E. coli BL21(DE3); dimer in solution; catalytic triad Ser106, Asp197, His225
As a reminder, the Km is the concentration of substrate that gives half-maximal velocity. Take B1: the Km in the data set “purified protein” was found to be 1.16 mM.

These data come from article PMC10342849, “Feruloyl Esterase (LaFae) from Lactobacillus acidophilus: Structural Insights and Functional Characterization for Application in Ferulic Acid Production” (International Journal of Molecular Sciences, 2023).
